Results reported in patent publication US20080176263A1, “Materials and Methods for Efficient and Accurate Detection of Analytes” (University of Florida Research Foundation, Inc., priority 2006, published 2008).
Where “and” joins values, the source holds several entries; their conditions need not be identical. Identical values can stand only once.

Experiments:
substrate TNO211 [1] = assay: Study #1: time-to-detection of protease activity, cleavage of substrate TNO211 by fluorescence; type: biochemical; conditions: protease concentrations ≦100 ng/ml
Procedure: 1. Prepare a suitable standard curve diluted in enzyme buffer. Typically, a maximum of 50 ng/ml final protease concentration in the assay is used. Keep on ice until use.
2. Prepare the substrate solution by diluting the Stock Reconstituted Substrate (in DMSO) to 5.56 uM in the desired Assay Buffer (EDTA-free or EDTA-containing) to produce 90 ul of total EDTA-free or EDTA-containing Assay Buffer per well.
3. Pipette 90 ul substrate solution into each well to be assayed.
4. Take an initial fluorescence reading. To minimize interference due to the fluorescence of endogenous proteins in the samples, we routinely use excitation/emission wavelengths of 355/535 nm, respectively.
5. Pipette 10 ul standards, samples, or Enzyme Buffer (BLANK) into each well of the 96-well fluorescence assay plate.
6. Measure the change in fluorescence continuously until the standard range of interest is sufficiently resolved. Protect from light at RT or 37° C. between measurements.
7. Determine the best-fit curve relating the Change in Fluorescence (AF) vs.
[Protease]. […]
One hundred, 10, 1, and 0.1 ng of pronase, MMP-2, MMP-9, and clostridial collagenase were assayed in a total reaction volume of 100 ul for cleavage of substrate TNO211 as detected by fluorescence. The reactions were monitored for approximately one hour after the addition of the proteases.

substrate TNO211 [2] = assay: Study #3: protease detection sensitivity, visual detection under UV; type: biochemical; conditions: within 10 minutes; from 17% and 28% of pronase activity
Procedure: To investigate the visual detection limits of pronase, standard curves (1000-0 ng) of the protease were reacted in 50, 100, and 200 uM substrate diluted in the assay buffer. Digital photographs were taken under white light and UV. These observations were compared to those obtained quantitatively using the fluorescence plate reader. The observed detection limits for pronase were used to calculate theoretical detection limits for MMP-2 and MMP-9 (17% and 28% as active as pronase, respectively).

activity as % of pronase's observed activity (substrate TNO211 [1]): 17±4% and 17%
theoretical detection limit calculated from pronase limit (substrate TNO211 [2]): approximately 735 ng
B1: MMP-2: protease assayed for cleavage of substrate TNO211 (protein)
chain: YNFFPRKPKWDKNQITYRIIGYTPDLDPETVDDAFARAFQVWSDVTPLRFSRIHDGEADIMINFGRWEHGDGYPFDGKDGLLAHAFAPGTGVGGDSHFDDDELWTLGEGQVVRVKYGNADGEYCKFPFLFNGKEYNSCTDTGRSDGFLWCSTTYNFEKDGKYGFCPHEALFTMGGNAEGQPCKFPFRFQGTSYDSCTTEGRTDGYRWCGTTEDYDRDKKYGFCPETAMSTVGGNSEGAPCVFPFTFLGNKYESCTSAGRSDGKMWCATTANYDDDRKWGFCPDQGYSLFLVAAHEFGHAMGLEHSQDPGALMAPIYTYTKNFRLSQDDIKGIQELYGASPDIDLGTGPTPTLGPVTPEICKQDIVFDGIAQIRGEIFFFKDRFIWRTVTPRDKPMGPLLVATFWPELPEKIDAVYEAPQEEKAVFFAGNEYWIYSASTLERGYPKPLTSLGLPPDVQRVDAAFNWSKNKKTYIFAGDKFWRYNEVKKKMDPGFPKLIADAWNAIPDNLDAVVDLQGGGHSYFFKGAYYLKLENQSLKSVKFGSIKSDWLGC
